Drawing on paper doi:10.1101/238154, this text covers Kd for two substances.

The target in assay [1] is SAGA DUB module containing Ubp8^C146S (yeast) (UniProt P50102). Nature of the assay: ITC.
The target in assay [2] is SAGA DUB module containing Ubp8^C146A (yeast) (UniProt P50102). Nature of the assay: ITC. For orientation: Isothermal titration calorimetry measures the heat released or taken up as one component is titrated into another.
The target of assay [3] is FlAsH tagged K63-linked diubiquitin (UniProt P0CG47). Put plainly: fluorescence polarisation. (Polarisation of emitted light reports the rotation of a fluorescent probe.)

Chain of SAGA DUB module containing Ubp8^C146S (yeast) (P50102 whole entry C146S, chain 1 of 4): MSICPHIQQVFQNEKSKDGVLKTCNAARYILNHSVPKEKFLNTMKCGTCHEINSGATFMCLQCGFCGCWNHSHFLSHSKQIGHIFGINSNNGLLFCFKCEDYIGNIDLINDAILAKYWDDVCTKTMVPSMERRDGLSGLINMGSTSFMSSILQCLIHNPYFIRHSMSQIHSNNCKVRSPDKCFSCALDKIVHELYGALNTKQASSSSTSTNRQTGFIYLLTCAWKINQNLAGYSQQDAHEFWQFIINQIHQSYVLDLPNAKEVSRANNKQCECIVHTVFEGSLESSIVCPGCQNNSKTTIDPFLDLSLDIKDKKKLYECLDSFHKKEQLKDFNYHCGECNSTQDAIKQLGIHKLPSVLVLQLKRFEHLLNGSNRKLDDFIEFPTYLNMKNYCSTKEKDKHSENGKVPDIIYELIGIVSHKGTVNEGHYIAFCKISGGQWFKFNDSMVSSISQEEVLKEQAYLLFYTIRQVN
Chain of SAGA DUB module containing Ubp8^C146S (yeast) (Q03067 whole entry, chain 2 of 4, further chain): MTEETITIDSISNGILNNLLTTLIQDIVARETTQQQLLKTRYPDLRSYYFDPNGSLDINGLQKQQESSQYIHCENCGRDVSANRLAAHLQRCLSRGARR
Chain of SAGA DUB module containing Ubp8^C146S (yeast) (Q6WNK7 whole entry, chain 3 of 4, further chain): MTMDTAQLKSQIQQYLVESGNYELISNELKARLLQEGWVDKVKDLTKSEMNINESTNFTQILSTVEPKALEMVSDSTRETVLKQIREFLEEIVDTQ
Chain of SAGA DUB module containing Ubp8^C146S (yeast) (P53165 1-96, chain 4 of 4, further chain): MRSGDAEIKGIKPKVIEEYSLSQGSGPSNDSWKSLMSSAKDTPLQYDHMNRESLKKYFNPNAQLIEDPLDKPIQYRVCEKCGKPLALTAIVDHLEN
Chain of SAGA DUB module containing Ubp8^C146A (yeast) (P50102 whole entry C146A, chain 1 of 4): as the sequence (P50102 whole entry C146S, chain 1 of 4) above, with S146A counted along it
Chain of SAGA DUB module containing Ubp8^C146A (yeast) (Q03067 whole entry, chain 2 of 4, further chain): as the sequence (Q03067 whole entry, chain 2 of 4, further chain) above
Chain of SAGA DUB module containing Ubp8^C146A (yeast) (Q6WNK7 whole entry, chain 3 of 4, further chain): as the sequence (Q6WNK7 whole entry, chain 3 of 4, further chain) above
Chain of SAGA DUB module containing Ubp8^C146A (yeast) (P53165 1-96, chain 4 of 4, further chain): as the sequence (P53165 1-96, chain 4 of 4, further chain) above

Usually Kd stands for the concentration at which binding is half-saturated. Low values mean a tighter complex, high ones a looser complex. For “K48-linked diubiquitin (from UniProt P0CG47 1-76)”, the Kd was 4.6 µM in assay [1] and 0.47 µM in assay [2].
On to “OTUD1^C320A catalytic domain (residues 287-435) (from UniProt Q5VV17 287-435) (domain or fragment)”, for which the Kd in assay [3] was 40 µM.
